Where two headings read alike, the source gives them in different places.
Legend:
[1] = biological target: T1, 72 kDa heat shock protein (HSP72), recombinant human (human, UniProt P0DMV8 1-641); experiment: SPR
[2] = biological target: T1, 72 kDa heat shock protein (HSP72), …; experiment: SPR; remark: listed apart in the source

T1 sequence (P0DMV8 whole entry): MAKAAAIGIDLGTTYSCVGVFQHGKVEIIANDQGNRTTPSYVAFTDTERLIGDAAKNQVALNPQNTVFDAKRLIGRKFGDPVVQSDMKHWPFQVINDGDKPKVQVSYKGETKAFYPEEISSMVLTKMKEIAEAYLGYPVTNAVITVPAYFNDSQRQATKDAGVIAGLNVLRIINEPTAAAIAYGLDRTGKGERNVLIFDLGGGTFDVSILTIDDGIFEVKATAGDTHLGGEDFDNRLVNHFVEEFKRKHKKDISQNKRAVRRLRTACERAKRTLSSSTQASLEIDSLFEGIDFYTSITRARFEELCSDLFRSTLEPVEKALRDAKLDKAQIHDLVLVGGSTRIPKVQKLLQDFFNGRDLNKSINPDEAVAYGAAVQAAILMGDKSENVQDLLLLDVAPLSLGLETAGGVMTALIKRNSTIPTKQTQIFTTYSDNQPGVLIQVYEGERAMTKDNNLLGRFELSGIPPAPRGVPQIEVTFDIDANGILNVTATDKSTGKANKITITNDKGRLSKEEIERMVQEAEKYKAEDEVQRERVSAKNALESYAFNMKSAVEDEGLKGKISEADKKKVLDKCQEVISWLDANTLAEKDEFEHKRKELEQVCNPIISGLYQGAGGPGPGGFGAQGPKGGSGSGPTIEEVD

B1: Peptide N, the extreme carboxyl terminus (15 amino acids) of the Edmonston MV N protein (peptide)
peptide: DTDTPIVYNDRNLLD
B1 was tested. Which Kd [1] did it give?
Its Kd is 1 µM.

What about the kon [1] of the same binder?
The kon was 357 M⁻¹ s⁻¹.

What about the Kd [2] of the same binder?
The Kd was 4 µM.
